{"source": "paper PMC6926464", "about": "“Gating control of the cardiac sodium channel Nav1.5 by its β3-subunit involves distinct roles for a transmembrane glutamic acid and the extracellular domain” (The Journal of Biological Chemistry, 2019)", "molecular_target": "the molecule itself", "test": "cross-linking; HEK293F cells singly transfected with EGFP-tagged β3 constructs; lysate (Hanks' balanced salt solution, 1% Triton X-100, 0.2% SDS, 0.5% sodium deoxycholate) incubated with BS3 (5 mM) for 1 h at 4 °C, quenched with glycine; SDS-PAGE and anti-GFP Western blot", "note": "Values joined by “and” are separate entries in the source; they are usually repeats but may differ in a detail not shown here. Identical values can stand only once.", "data": [{"protein": "full-length WT β3-subunit with C-terminal EGFP tag (natural protein, human, UniProt Q9NY72 23-215, looked up, voltage-gated sodium channel auxiliary β3-subunit, full-length; glycosylated (multiple bands on SDS-PAGE); also called WT-β3-EGFP; FL β3-EGFP; source: HEK293F, transfected (pcDNA3 WT-β3-EGFP), in lysate; not shown: EGFP, C-terminal, kept) FPVCVEVPSETEAVQGNPMKLRCISCMKREEVEATTVVEWFYRPEGGKDFLIYEYRNGHQEVESPFQGRLQWNGSKDLQDVSITVLNVTLNDSGLYTCNVSREFEFEAHRPFVKTTRLIPLRVTEEAGEDFTSVVSEIMMYILLVFLTLWLLIEMIYCYRKVSKAEEAAQENASDYLAIPSENKENSAVPVEE", "values": [{"measurement": "stoichiometry N", "result": "2 and 3"}]}, {"protein": "full-length β3-subunit E176K with C-terminal EGFP tag (natural protein, human, UniProt Q9NY72 23-215, looked up, voltage-gated sodium channel auxiliary β3-subunit, full-length, with E176K in the transmembrane region; residues numbered from the start codon of the cDNA; Made by site-directed mutagenesis of WT-β3-EGFP; also called β3-E176K-EGFP; E176K-EGFP; source: HEK293F, transfected, in lysate; not shown: EGFP, C-terminal, kept) FPVCVEVPSETEAVQGNPMKLRCISCMKREEVEATTVVEWFYRPEGGKDFLIYEYRNGHQEVESPFQGRLQWNGSKDLQDVSITVLNVTLNDSGLYTCNVSREFEFEAHRPFVKTTRLIPLRVTEEAGEDFTSVVSEIMMYILLVFLTLWLLIKMIYCYRKVSKAEEAAQENASDYLAIPSENKENSAVPVEE", "values": [{"measurement": "stoichiometry N", "result": "2 and 3"}]}]}
